Results taken from publication PMC6354057 (Molecules and Cells, 2019).

Biological target: the molecule itself
Assay: crystal structure

B1: Histidine triad nucleotide-binding protein (HINT) from Candida albicans (enzyme, UniProt Q59WG0 1-152, looked up)
chain: MASHASCIFCKIIKGEIPSFKLIETAKTYSFLDIQPIAEAHVLIIPKHHGAKLHNIPDDYLSDILPVVKKLTKVLKLDENNTPEGEGYNVLQNNGRIAHQVVDHVHFHLIPKKDEATGLGVGWPAEATDFDKLGKLHEKLKEELAKVDNEKL
- stoichiometry N: 2
